Assay results reported in patent publication US9081017 (CAMBRIDGE ENTERPRISE, dated 2015).

Target: T1, TRAF2 (mouse, endogenous) (mouse, UniProt P39429 2-501)
T1 construct: Endogenous protein; also called TNF-receptor associated factor 2
T1 sequence (looked up): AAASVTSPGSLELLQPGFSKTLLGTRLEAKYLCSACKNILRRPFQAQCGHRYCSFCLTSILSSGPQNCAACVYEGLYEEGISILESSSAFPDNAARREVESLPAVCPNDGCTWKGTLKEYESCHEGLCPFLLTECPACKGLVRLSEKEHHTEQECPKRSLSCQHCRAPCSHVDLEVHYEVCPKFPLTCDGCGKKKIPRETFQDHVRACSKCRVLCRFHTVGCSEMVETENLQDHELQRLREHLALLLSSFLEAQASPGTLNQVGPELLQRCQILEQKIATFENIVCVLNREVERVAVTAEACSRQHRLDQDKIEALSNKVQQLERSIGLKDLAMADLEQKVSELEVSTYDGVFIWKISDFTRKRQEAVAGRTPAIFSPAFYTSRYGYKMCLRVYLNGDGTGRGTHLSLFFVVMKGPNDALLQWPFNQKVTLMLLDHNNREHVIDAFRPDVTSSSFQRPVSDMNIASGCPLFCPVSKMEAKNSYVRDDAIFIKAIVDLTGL
Assay: co-immunoprecipitation from ischemic hindlimb muscle of C57BL/6 mice

B1: TNFR2 (mouse, endogenous in hindlimb muscle of C57BL/6 mice) (receptor, UniProt P25119 23-474, looked up)
chain: VPAQVVLTPYKPEPGYECQISQEYYDRKAQMCCAKCPPGQYVKHFCNKTSDTVCADCEASMYTQVWNQFRTCLSCSSSCTTDQVEIRACTKQQNRVCACEAGRYCALKTHSGSCRQCMRLSKCGPGFGVASSRAPNGNVLCKACAPGTFSDTTSSTDVCRPHRICSILAIPGNASTDAVCAPESPTLSAIPRTLYVSQPEPTRSQPLDQEPGPSQTPSILTSLGSTPIIEQSTKGGISLPIGLIVGVTSLGLLMLGLVNCIILVQRKKKPSCLQRDAKVPHVPDEKSQDAVGLEQQHLLTTAPSSSSSSLESSASAGDRRAPPGGHPQARVMAEAQGFQEARASSRISDSSHGSHGTHVNVTCIVNVCSSSDHSSQCSSQASATVGDPDAKPSASPKDEQVPFSQEECPSQSPCETTETLQSHEKPLPLGVPDMGMKPSQAGWFDQIAVKVA
notes: Endogenous protein immunoprecipitated from muscle tissue; also called tumor necrosis factor receptor 2
B1: binds.
